Experimental findings from publication PMC11472053, “Structural basis of DNA recognition by BEN domain proteins reveals a role for oligomerization in unmethylated DNA selection by BANP” (Nucleic Acids Research, 2024) are described below.

One data set addresses T1, BANP BEN WT (human) (UniProt Q8N9N5).
T1 sequence: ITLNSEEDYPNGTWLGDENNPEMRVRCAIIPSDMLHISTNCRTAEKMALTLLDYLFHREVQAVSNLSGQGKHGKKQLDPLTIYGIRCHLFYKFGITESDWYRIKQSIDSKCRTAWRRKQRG
Put plainly: ITC. The note with it: 5-methyl-C at positions 5 and 7 of each strand (fully methylated); ITC: 20 mM Tris pH 7.5, 200 mM NaCl, 2 mM beta-mercaptoethanol, 20 C; EMSA: 20 mM Tris pH 7.0, 200 mM NaCl, 2 mM DTT, 4 C, 1.2% agarose in TAE.

The target in data set [1] is T2, BANP BEN WT (human, UniProt Q8N9N5 205-325).
T2 sequence: T1 sequence
Briefly: EMSA; ITC: 20 mM Tris pH 7.5, 200 mM NaCl, 2 mM beta-mercaptoethanol, 20 C; EMSA: 20 mM Tris pH 7.0, 200 mM NaCl, 2 mM DTT, 4 C, 1.2% agarose in TAE. The note with it: protein: recombinant; tags: His-SUMO or His-MBP, cleaved; chain copies: 2; blunt.

The target of data set [2] is T3, NACC1 BEN WT (human, UniProt Q96RE7 341-477).
T3 sequence: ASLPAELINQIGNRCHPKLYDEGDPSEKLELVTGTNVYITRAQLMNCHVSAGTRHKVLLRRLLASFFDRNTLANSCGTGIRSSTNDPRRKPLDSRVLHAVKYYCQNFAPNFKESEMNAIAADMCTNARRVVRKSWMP
Described as above. The note with it: protein: recombinant; tags: His-SUMO or His-MBP, cleaved; blunt.

For data set [3], the target named is T2, BANP BEN WT. Briefly: crystal structure; 2.6 A; PDB assignment from column order; ITC: 20 mM Tris pH 7.5, 200 mM NaCl, 2 mM beta-mercaptoethanol, 20 C; EMSA: 20 mM Tris pH 7.0, 200 mM NaCl, 2 mM DTT, 4 C, 1.2% agarose in TAE. The note with it: protein: recombinant; tags: His-SUMO or His-MBP, cleaved; chain copies: 2; 12 bp, 5' overhang 1 nt (C) each strand.

For the next data set, the target named is T4, BANP CC-BEN (ΔDBD) (human, UniProt Q8N9N5 1-360).
T4 sequence: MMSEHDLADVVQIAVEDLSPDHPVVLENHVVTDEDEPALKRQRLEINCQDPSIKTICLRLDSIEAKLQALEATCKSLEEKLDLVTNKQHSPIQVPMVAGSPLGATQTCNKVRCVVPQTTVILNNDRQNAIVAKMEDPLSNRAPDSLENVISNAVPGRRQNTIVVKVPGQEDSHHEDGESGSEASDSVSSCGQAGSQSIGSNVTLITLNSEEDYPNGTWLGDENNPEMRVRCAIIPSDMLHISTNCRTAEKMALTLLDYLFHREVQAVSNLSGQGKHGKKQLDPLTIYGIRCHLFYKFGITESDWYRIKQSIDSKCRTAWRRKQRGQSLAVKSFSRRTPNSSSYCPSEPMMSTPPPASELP
Put plainly: ITC; ITC: 20 mM Tris pH 7.5, 200 mM NaCl, 2 mM beta-mercaptoethanol, 20 C; EMSA: 20 mM Tris pH 7.0, 200 mM NaCl, 2 mM DTT, 4 C, 1.2% agarose in TAE. As to conditions: protein: recombinant; tags: His-SUMO or His-MBP, cleaved; blunt, self-complementary.

The target in another data set is T5, BANP full-length WT (human, UniProt Q8N9N5 1-519).
T5 sequence: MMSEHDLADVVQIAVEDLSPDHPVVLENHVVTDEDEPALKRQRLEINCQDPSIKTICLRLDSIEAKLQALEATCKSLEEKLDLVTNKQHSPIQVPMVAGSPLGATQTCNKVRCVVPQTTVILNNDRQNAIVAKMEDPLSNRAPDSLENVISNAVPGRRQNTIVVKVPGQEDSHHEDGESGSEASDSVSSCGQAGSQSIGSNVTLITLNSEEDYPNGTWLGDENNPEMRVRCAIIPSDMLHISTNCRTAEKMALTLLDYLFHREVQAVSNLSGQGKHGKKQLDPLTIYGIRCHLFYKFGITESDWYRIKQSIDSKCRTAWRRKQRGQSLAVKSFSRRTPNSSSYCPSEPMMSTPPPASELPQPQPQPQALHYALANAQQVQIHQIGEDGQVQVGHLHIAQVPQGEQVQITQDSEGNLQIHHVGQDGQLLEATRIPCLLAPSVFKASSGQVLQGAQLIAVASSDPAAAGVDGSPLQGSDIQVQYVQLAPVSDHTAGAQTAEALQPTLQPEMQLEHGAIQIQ
The data set is described as above. As to conditions: protein: recombinant; tags: His-SUMO or His-MBP, cleaved; chain copies: 4; blunt, self-complementary.

In the next data set the target is T6, BANP ΔCC (human, UniProt Q8N9N5 90-519).
T6 sequence: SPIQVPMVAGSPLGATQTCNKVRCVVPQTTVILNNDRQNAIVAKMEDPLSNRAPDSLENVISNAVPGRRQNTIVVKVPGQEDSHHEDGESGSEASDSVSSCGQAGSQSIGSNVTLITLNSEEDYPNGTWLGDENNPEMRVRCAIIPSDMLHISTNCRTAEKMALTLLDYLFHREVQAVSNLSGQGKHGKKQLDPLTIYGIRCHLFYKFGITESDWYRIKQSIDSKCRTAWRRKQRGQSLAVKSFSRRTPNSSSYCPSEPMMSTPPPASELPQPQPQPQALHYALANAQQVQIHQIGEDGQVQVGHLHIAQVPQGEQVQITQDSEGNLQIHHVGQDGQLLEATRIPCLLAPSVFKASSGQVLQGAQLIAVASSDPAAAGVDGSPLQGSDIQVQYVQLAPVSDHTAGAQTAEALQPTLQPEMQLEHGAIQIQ
Described as above. As to conditions: protein: recombinant; tags: His-SUMO or His-MBP, cleaved; blunt, self-complementary.

In a further data set the target is T7, BANP BEN-DBD (human, UniProt Q8N9N5 205-519).
T7 sequence: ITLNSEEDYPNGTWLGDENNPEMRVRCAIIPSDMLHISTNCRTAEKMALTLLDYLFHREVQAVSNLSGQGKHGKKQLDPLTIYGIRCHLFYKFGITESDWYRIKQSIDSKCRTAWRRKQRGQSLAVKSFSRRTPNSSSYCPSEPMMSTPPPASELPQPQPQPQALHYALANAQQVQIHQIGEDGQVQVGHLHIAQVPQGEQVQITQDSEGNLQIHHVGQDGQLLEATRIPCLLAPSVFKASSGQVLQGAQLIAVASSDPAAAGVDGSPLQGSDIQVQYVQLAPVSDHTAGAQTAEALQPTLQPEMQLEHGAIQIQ
The data set is described as above. The note with it: protein: recombinant; tags: His-SUMO or His-MBP, cleaved; blunt, self-complementary.

Data set [4] concerns the molecule itself. Put plainly: cross-linking; purified full-length BANP in 20 mM HEPES pH 7.5, 200 mM NaCl, 2 mM DTT; 0.06% glutaraldehyde, on ice 10 min, quenched with Tris; then Superdex 200 10/300 GL and SDS-PAGE of the fractions.
Data set [5] has as its target T3, NACC1 BEN WT. Put plainly: crystal structure; 2.3 A; PDB assignment from column order; ITC: 20 mM Tris pH 7.5, 200 mM NaCl, 2 mM beta-mercaptoethanol, 20 C; EMSA: 20 mM Tris pH 7.0, 200 mM NaCl, 2 mM DTT, 4 C, 1.2% agarose in TAE. The note with it: protein: recombinant; tags: His-SUMO or His-MBP, cleaved; 10 bp, 5' overhang 1 nt (T) each strand.

Turning to “ATCTCGCGAGAT (double strand) [12-mCGmCG]”, in the data set with BANP BEN WT (human), the dissociation constant (Kd) was 5.7 µM.

B1: 12-AT (dsDNA)
DNA 1: TTTTATATATAA
DNA 2: TTATATATAAAA
With B1, the binding result with BANP BEN WT [1] and with NACC1 BEN WT [2] was “no binding” each time.

B2: BANP crystal DNA (dsDNA)
DNA 1: CATCTCGCGAGAT
DNA 2: CATCTCGCGAGAT
As for B2, the binding result in the data set with BANP BEN WT [3] is recorded as “binds”.

B3: 12-mCGmCG (dsDNA)
DNA 1: ATCTCGCGAGAT
DNA 2: ATCTCGCGAGAT
modifications: 5-methyl-C at positions 5 and 7 of each strand (fully methylated)
As to B3, the binding result in the data set with BANP CC-BEN (ΔDBD), in the data set with BANP full-length WT, with BANP ΔCC and with BANP BEN-DBD was “no binding” each time.

B4: full-length BANP (natural protein, human, UniProt Q8N9N5 1-519, looked up)
chain: T5 sequence
notes: BANP, human, full length; also called SMAR1; source: E. coli Rosetta (DE3), purified (nickel column, HiTrap Q, gel filtration)
Take B4: in data set [4], the “stoichiometry N” value worked out at 4.

B5: NACC1 crystal DNA (dsDNA)
DNA 1: TTTACATGTAA
DNA 2: TTTACATGTAA
Take B5: the binding result with NACC1 BEN WT [5] is “binds”.
